Reference: patent US20260242478A1 (published 2026)

B1: Phage-618 (peptide)
peptide: YCDGHTQEYMAKCL
notes: tested as crude phage supernatant
B2: Phage-617 (peptide)
peptide: YCDGHTQEYIAKCL
notes: Clonal phage of the Peptide-87 library, tested as crude phage supernatant; not shown: pIII of the bacteriophage to which the peptide is fused
B3: Phage-621 (peptide)
peptide: YCAGHSPEYMTKCL
notes: as for B1
B4: Phage-606 (peptide)
peptide: YCAGHLPEYFLKCL
notes: as for B2
B5: Phage-616 (peptide)
peptide: YCMGHLPQYMQKCL
notes: as for B2
B6: Phage-592 (peptide)
peptide: YCDGHRGEYLQKCL
notes: Tested as clonal phage supernatant
B7: Phage-612 (peptide)
peptide: YCDGHSIEYRWKCL
notes: as for B2
B8: Phage-594 (peptide)
peptide: YCEGHAAEYMTKCL
notes: as for B6
B9: Phage-590 (peptide)
peptide: YCDGHSMEYMSKCL
B10: Phage-599 (peptide)
peptide: YCEGHTVEYMAKCL
notes: as for B6
B11: Phage-587 (peptide)
peptide: YCEGHLPEYMQKCM
B12: Phage-591 (peptide)
peptide: YCEGHLPMYMDKCL
B13: Phage-589 (peptide)
peptide: YCEGHSPEYMYKCL
B14: Phage-596 (peptide)
peptide: YCDGHIEEYRAKCL
notes: as for B6
B15: Phage-614 (peptide)
peptide: YCDGHAPEYIYKCL
notes: as for B2
B16: Phage-600 (peptide)
peptide: YCDGHKAEYMDKCL
notes: as for B6
B17: Phage-584 (peptide)
peptide: YCDGHLPLYLAKCL
B18: Phage-593 (peptide)
peptide: YCEGHSPQYMWKCL
notes: as for B6
B19: Phage-613 (peptide)
peptide: YCEGHAEEYMQKCL
notes: as for B2
B20: Phage-620 (peptide)
peptide: YCDGHMPEYMWKCL
notes: as for B1
B21: Phage-610 (peptide)
peptide: YCDGHLPQYKAKCL
notes: as for B2
B22: Phage-605 (peptide)
peptide: YCDGHLPEYLSKCL
notes: as for B2
B23: Phage-601 (peptide)
peptide: YCDGHAPEYMLKCL
notes: as for B6
B24: Phage-602 (peptide)
peptide: YCDGHAPDYMLKCL
notes: as for B6
B25: Phage-597 (peptide)
peptide: YCEGHAPEYMLKCL
notes: as for B6
B26: Phage-595 (peptide)
peptide: YCEGHLPQYMKKCL
notes: as for B6
B27: Phage-603 (peptide)
peptide: YCDGHLPEYLPKCL
notes: as for B6
B28: Phage-604 (peptide)
peptide: YCDGHMPEYIAKCL
notes: as for B6
B29: Phage-615 (peptide)
peptide: YCDGHLEEYKQKCL
notes: as for B2
B30: Phage-582 (peptide)
peptide: YCDGHSQEYMAKCL
B31: Phage-588 (peptide)
peptide: YCDGHSAEYMAKCL
B32: Phage-586 (peptide)
peptide: YCEGHAPMYMWKCL
B33: Phage-608 (peptide)
peptide: YCDGHLPEYMHKCL
notes: as for B2
B34: Phage-583 (peptide)
peptide: YCQGHLPIYMEKCL
B35: Phage-585 (peptide)
peptide: YCDGHLPQYMNKCL
B36: Phage-611 (peptide)
peptide: YCDGHAVEYMAKCL
notes: as for B2
B37: Phage-607 (peptide)
peptide: YCDGHSPLYIWKCL
notes: as for B2
B38: Phage-598 (peptide)
peptide: YCDGHAPEYMEKCM
notes: as for B6
B39: Phage-619 (peptide)
peptide: YCEGHLPVYMWKCL
notes: as for B1
B40: Phage-609 (peptide)
peptide: YCDGHLPEYIEKCL
notes: as for B2

Experiments:
[1] = molecular target: anti-CD28 Fab (SEQ ID NOs: 696, 697); assay: phage binding ELISA; Fab on plate pre-incubated with CD28 antigen as competitor, anti-M13 HRP detection;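 also: crude clonal phage supernatants screened by ELISA, with comparison wells pre-incubated in blocking buffer only, lacking CD28 antigen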
Sequence of anti-CD28 Fab (SEQ ID NOs: 696, 697) (VH, as listed by the source, chain 1 of 2): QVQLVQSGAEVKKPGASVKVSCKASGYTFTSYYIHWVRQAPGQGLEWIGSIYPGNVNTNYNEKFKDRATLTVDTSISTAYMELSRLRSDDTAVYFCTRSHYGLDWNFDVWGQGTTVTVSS
Sequence of anti-CD28 Fab (SEQ ID NOs: 696, 697) (VL, as listed by the source, chain 2 of 2): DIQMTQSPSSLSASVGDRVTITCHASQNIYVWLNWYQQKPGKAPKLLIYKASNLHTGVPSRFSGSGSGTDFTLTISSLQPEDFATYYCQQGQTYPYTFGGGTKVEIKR
Protocol: (§1) After panning, phage infected bacteria were plated out and colonies picked into 96 well blocks. Clonal phage was then amplified and separated from bacterial cells via centrifugation.
(§2) Clonal phage were harvested as crude supematants and screened via standard ELISAs. […] Prior to the addition of clonal phage, wells were incubated with blocking buffer and CD28 antigen or blocking buffer alone. Without washing or aspirating, clonal phage supematants were then added to the wells and incubated for a short time. Wells were then washed followed by detection of bound phage using a horse radish conjugated anti-M13 antibody. Clonal phage of interest were then sent for sequence analysis.

[2] = molecular target: anti-CD28 Fab (SEQ ID NOs: 696, 697); assay: phage binding ELISA; biotinylated Fab on neutravidin plate, clonal phage supernatant, anti-M13 HRP detection;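 also: phage from clones picked after panning, added to wells pre-incubated with blocking buffer with or without CD28 antigen, then briefly incubated and washed before detection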
Protocol: as §1, §2

[3] = molecular target: T1, Anti-CD28 Fab (SEQ ID NOs: 696, 697); assay: phage ELISA; biotinylated anti-CD28 Fab on neutravidin plate, clonal phage supernatant, anti-M13 HRP
T1 construct: In the phage ELISA the Fab was biotinylated and captured on neutravidin coated plates
T1 sequence (VH, as listed by the source, chain 1 of 2): as the sequence (VH, as listed by the source, chain 1 of 2) above
T1 sequence (VL, as listed by the source, chain 2 of 2): as the sequence (VL, as listed by the source, chain 2 of 2) above
Protocol: as §1, §2

[4] = molecular target: T1, Anti-CD28 Fab (SEQ ID NOs: 696, 697); assay: phage ELISA; captured anti-CD28 Fab pre-incubated with CD28 antigen as competitor, anti-M13 HRP;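 also: crude clonal phage supernatants added without washing after CD28 pre-incubation, bound phage detected with HRP anti-M13 antibody, reference wells got blocking buffer lacking CD28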
Protocol: as §1, §2

[5] = molecular target: T2, Anti-CD28 Fab (SEQ ID NOs: 696, 697); assay: phage ELISA; biotinylated anti-CD28 Fab on neutravidin plate, clonal phage supernatant, anti-M13 HRP detection;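 also: crude supernatants of single phage clones picked after panning were screened for binding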
T2 construct: In the phage ELISA the Fab was biotinylated and captured on neutravidin coated plates
T2 sequence (VH, as listed by the source, chain 1 of 2): as the sequence (VH, as listed by the source, chain 1 of 2) above
T2 sequence (VL, as listed by the source, chain 2 of 2): as the sequence (VL, as listed by the source, chain 2 of 2) above

[6] = molecular target: T2, Anti-CD28 Fab (SEQ ID NOs: 696, 697); assay: phage ELISA; plate-bound anti-CD28 Fab pre-incubated with CD28 antigen as competitor, anti-M13 HRP detection
Protocol: as §1, §2

[7] = molecular target: Anti-CD28 Fab (SEQ ID NOs: 696, 697); assay: phage binding ELISA; biotinylated anti-CD28 Fab on neutravidin plate, clonal phage supernatant, anti-M13 HRP;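 also: crude clonal phage supernatants screened after wells were preincubated either with CD28 antigen in blocking buffer or with blocking buffer only, phage added without washing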
Target sequence in this assay (VH, as listed by the source, chain 1 of 2): as the sequence (VH, as listed by the source, chain 1 of 2) above
Target sequence in this assay (VL, as listed by the source, chain 2 of 2): as the sequence (VL, as listed by the source, chain 2 of 2) above

[8] = molecular target: Anti-CD28 Fab (SEQ ID NOs: 696, 697); assay: phage binding ELISA; captured anti-CD28 Fab pre-incubated with CD28 antigen as competitor, anti-M13 HRP
Target sequence in this assay (VH, as listed by the source, chain 1 of 2): as the sequence (VH, as listed by the source, chain 1 of 2) above
Target sequence in this assay (VL, as listed by the source, chain 2 of 2): as the sequence (VL, as listed by the source, chain 2 of 2) above
Protocol: as §1, §2

Row | Binder | Anti-CD28 Fab signal (phage binding ELISA) [3] | Anti-CD28 Fab signal in the presence of CD28 (phage binding ELISA) [4] | Phage binding ELISA, Anti-CD28 Fab signal [5] | Phage binding ELISA, Anti-CD28 Fab signal in the presence of CD28 [6] | also measured
1 | B1 | – | – | – | – | Anti-CD28 Fab signal in the presence of CD28 [1]: 0.07; Anti-CD28 Fab (SEQ ID NOs: 696, 697) signal [2]: 2.17
2 | B2 | 2.17 | 0.06 | – | – | –
3 | B3 | – | – | – | – | Anti-CD28 Fab signal in the presence of CD28 [1]: 0.09; Anti-CD28 Fab (SEQ ID NOs: 696, 697) signal [2]: 2.17
4 | B4 | 2.19 | 0.08 | – | – | –
5 | B5 | 2.18 | 0.11 | – | – | –
6 | B6 | – | – | 2.22 | 0.09 | –
7 | B7 | 2.18 | 0.06 | – | – | –
8 | B8 | – | – | 2.22 | 0.08 | –
9 | B9 | – | – | – | – | Anti-CD28 Fab (SEQ ID NOs: 696, 697) signal [7]: 2.22; Anti-CD28 Fab signal in the presence of CD28 [8]: 0.09
10 | B10 | – | – | 2.2 | 0.08 | –
11 | B11 | – | – | – | – | Anti-CD28 Fab (SEQ ID NOs: 696, 697) signal [7]: 2.23; Anti-CD28 Fab signal in the presence of CD28 [8]: 0.08
12 | B12 | – | – | – | – | Anti-CD28 Fab (SEQ ID NOs: 696, 697) signal [7]: 2.22; Anti-CD28 Fab signal in the presence of CD28 [8]: 0.07
13 | B13 | – | – | – | – | Anti-CD28 Fab (SEQ ID NOs: 696, 697) signal [7]: 2.23; Anti-CD28 Fab signal in the presence of CD28 [8]: 0.1
14 | B14 | – | – | 2.21 | 0.07 | –
15 | B15 | 2.18 | 0.06 | – | – | –
16 | B16 | – | – | 2.2 | 0.07 | –
17 | B17 | – | – | – | – | Anti-CD28 Fab (SEQ ID NOs: 696, 697) signal [7]: 2.23; Anti-CD28 Fab signal in the presence of CD28 [8]: 0.09
18 | B18 | – | – | 2.22 | 0.12 | –
19 | B19 | 2.18 | 0.06 | – | – | –
20 | B20 | – | – | – | – | Anti-CD28 Fab signal in the presence of CD28 [1]: 0.09; Anti-CD28 Fab (SEQ ID NOs: 696, 697) signal [2]: 2.17

Row | Binder | Anti-CD28 Fab signal (phage binding ELISA) [3] | Anti-CD28 Fab signal in the presence of CD28 (phage binding ELISA) [4] | Phage binding ELISA, Anti-CD28 Fab signal [5] | Phage binding ELISA, Anti-CD28 Fab signal in the presence of CD28 [6] | also measured
21 | B21 | 2.19 | 0.09 | – | – | –
22 | B22 | 2.19 | 0.07 | – | – | –
23 | B23 | – | – | 2.2 | 0.07 | –
24 | B24 | – | – | 2.2 | 0.09 | –
25 | B25 | – | – | 2.21 | 0.07 | –
26 | B26 | – | – | 2.22 | 0.1 | –
27 | B27 | – | – | 2.19 | 0.09 | –
28 | B28 | – | – | 2.19 | 0.08 | –
29 | B29 | 2.18 | 0.08 | – | – | –
30 | B30 | – | – | – | – | Anti-CD28 Fab (SEQ ID NOs: 696, 697) signal [7]: 2.24; Anti-CD28 Fab signal in the presence of CD28 [8]: 0.08
31 | B31 | – | – | – | – | Anti-CD28 Fab (SEQ ID NOs: 696, 697) signal [7]: 2.23; Anti-CD28 Fab signal in the presence of CD28 [8]: 0.07
32 | B32 | – | – | – | – | Anti-CD28 Fab (SEQ ID NOs: 696, 697) signal [7]: 2.23; Anti-CD28 Fab signal in the presence of CD28 [8]: 0.08
33 | B33 | 2.19 | 0.09 | – | – | –
34 | B34 | – | – | – | – | Anti-CD28 Fab (SEQ ID NOs: 696, 697) signal [7]: 2.24; Anti-CD28 Fab signal in the presence of CD28 [8]: 0.09
35 | B35 | – | – | – | – | Anti-CD28 Fab (SEQ ID NOs: 696, 697) signal [7]: 2.23; Anti-CD28 Fab signal in the presence of CD28 [8]: 0.1
36 | B36 | 2.18 | 0.1 | – | – | –
37 | B37 | 2.19 | 0.09 | – | – | –
38 | B38 | – | – | 2.21 | 0.07 | –
39 | B39 | – | – | – | – | Anti-CD28 Fab signal in the presence of CD28 [1]: 0.09; Anti-CD28 Fab (SEQ ID NOs: 696, 697) signal [2]: 2.17
40 | B40 | 2.19 | 0.07 | – | – | –
